IntAct's records for PubMed 21423209

B1: Catenin beta-1 (Homo sapiens), P35222 (parent)
chain: MATQADLMELDMAMEPDRKAAVSHWQQQSYLDSGIHSGATTTAPSLSGKGNPEEEDVDTSQVLYEWEQGFSQSFTQEQVADIDGQYAMTRAQRVRAAMFPETLDEGMQIPSTQFDAAHPTNVQRLAEPSQMLKHAVVNLINYQDDAELATRAIPELTKLLNDEDQVVVNKAAVMVHQLSKKEASRHAIMRSPQMVSAIVRTMQNTNDVETARCTAGTLHNLSHHREGLLAIFKSGGIPALVKMLGSPVDSVLFYAITTLHNLLLHQEGAKMAVRLAGGLQKMVALLNKTNVKFLAITTDCLQILAYGNQESKLIILASGGPQALVNIMRTYTYEKLLWTTSRVLKVLSVCSSNKPAIVEAGGMQALGLHLTDPSQRLVQNCLWTLRNLSDAATKQEGMEGLLGTLVQLLGSDDINVVTCAAGILSNLTCNNYKNKMMVCQVGGIEALVRTVLRAGDREDITEPAICALRHLTSRHQEAEMAQNAVRLHYGLPVVVKLLHPPSHWPLIKATVGLIRNLALCPANHAPLREQGAIPRLVQLLVRAHQDTQRRTSMGGTQQQFVEGVRMEEIVEGCTGALHILARDVHNRIVIRGLNTIPLFVQLLYSPIENIQRVAAGVLCELAQDKEAAEAIEAEGATAPLTELLHSRNEGVATYAAAVLFRMSEDKPQDYKKRLSVELTSSLFRTEPMAWNETADLGLDIGAQGEPLGYRQDDPSYRSFHSGGYGQDALGMDPMMEHEMGGHHPGADYPVDGLPDLGHAQDLMDGLPPGDSNQLAWFDTDL

Variants of: B1
Details: with ron_mouse Mst1r

| Variant | effect of a mutation on the interaction |
| --- | --- |
| Y654F;Y670F | disrupting interaction |
